Patent publication US20250000904A1

Key:
Experiment in all cases: cell-based or functional assay
[1] = target: TGFβR2-IL21Rβ signaling redirector receptor
[2] = target: TGFβR2-IL2Rβ signaling redirector receptor
[3] = target: TGFβR2-IL12Rβ signaling redirector receptor
Chain of TGFβR2-IL12Rβ signaling redirector receptor (main, as listed by the source): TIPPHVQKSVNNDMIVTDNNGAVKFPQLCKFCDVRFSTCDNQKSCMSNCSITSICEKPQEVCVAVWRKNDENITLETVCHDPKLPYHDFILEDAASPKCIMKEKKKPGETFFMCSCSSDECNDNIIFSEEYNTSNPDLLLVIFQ

Chain of TGFβR2-IL2Rβ signaling redirector receptor (chain, as listed by the source): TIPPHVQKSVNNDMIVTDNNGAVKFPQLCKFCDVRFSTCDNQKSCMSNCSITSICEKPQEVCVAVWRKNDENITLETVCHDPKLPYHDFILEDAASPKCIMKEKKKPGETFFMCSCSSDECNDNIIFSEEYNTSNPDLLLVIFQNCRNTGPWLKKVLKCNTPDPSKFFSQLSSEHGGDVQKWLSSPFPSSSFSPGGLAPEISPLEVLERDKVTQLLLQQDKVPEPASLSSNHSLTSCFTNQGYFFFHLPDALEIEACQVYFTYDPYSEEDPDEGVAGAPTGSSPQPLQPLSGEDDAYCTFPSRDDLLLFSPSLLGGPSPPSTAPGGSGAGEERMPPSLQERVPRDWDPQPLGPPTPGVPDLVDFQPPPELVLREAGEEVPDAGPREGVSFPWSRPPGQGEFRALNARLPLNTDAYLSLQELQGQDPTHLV
Chain of TGFβR2-IL21Rβ signaling redirector receptor (chain, as listed by the source): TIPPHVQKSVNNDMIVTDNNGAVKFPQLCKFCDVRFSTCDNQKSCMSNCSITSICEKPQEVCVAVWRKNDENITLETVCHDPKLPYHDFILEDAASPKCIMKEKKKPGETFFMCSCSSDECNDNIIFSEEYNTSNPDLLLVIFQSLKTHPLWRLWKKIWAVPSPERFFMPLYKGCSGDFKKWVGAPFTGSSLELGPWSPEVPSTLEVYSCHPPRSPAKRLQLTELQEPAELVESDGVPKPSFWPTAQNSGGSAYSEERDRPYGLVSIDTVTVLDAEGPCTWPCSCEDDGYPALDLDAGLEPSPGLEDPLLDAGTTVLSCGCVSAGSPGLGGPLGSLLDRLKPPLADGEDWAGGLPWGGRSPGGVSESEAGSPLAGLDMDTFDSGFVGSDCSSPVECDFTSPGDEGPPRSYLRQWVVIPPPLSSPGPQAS

increase in tumor cell numbers over base input after three rounds of restimulation, with recombinant TGFβ [1]: 1.5 fold | increase in tumor cell numbers over base input after three rounds of restimulation, with recombinant TGFβ [2]: 1.5 fold | increase in tumor cell numbers over base input after three rounds of restimulation, with recombinant TGFβ [3]: 1.5 fold
Substance: recombinant TGFβ (ligand)
